From patent US12012453B2, “Methods for treating late-stage small cell lung cancer by administering a human anti-PD-L1 antibody, an etoposide and a platinum-based therapeutic” (ASTRAZENECA AB, priority 2019, dated 2024)

Key:
[1] = test system: patients with platinum-refractory disease; conditions: second-line; cited from earlier work
[2] = test system: patients with ES-SCLC; conditions: in vivo
Experimental: (§2) Patients were randomized in a 1:1:1 ratio to receive durvalumab 1500 mg plus EP, durvalumab 1500 mg plus tremelimumab 75 mg plus EP, or EP (FIG. 1). Across all three study arms, chemotherapy consisted of etoposide 80-100 mg/m^2 (administered on days 1 to 3 of each cycle), with either carboplatin area under the curve 5-6 mg/mL/min or cisplatin 75-80 mg/m^2 (administered on day 1 of each cycle). Randomization was stratified according to planned platinum agent. Patients in the immunotherapy arms received up to 4 cycles of EP plus durvalumab every 3 weeks (q3w) followed by maintenance durvalumab 1500 mg every 4 weeks (q4w). Patients in the EP arm could receive an additional 2 cycles of EP (up to 6 cycles total) and prophylactic cranial irradiation (PCI). Patients continued treatment until Response Evaluation Criteria in Solid Tumor version 1.1 (RECIST v1.1)-defined disease progression, unacceptable toxicity, or other discontinuation criteria were met. Continuation of study treatment following disease progression was permitted if there was evidence of clinical benefit (FIG. 1). In-study crossover from the EP to the immunotherapy plus EP arms was not allowed.
(§3) Tumor imaging was performed every 6 weeks for the first 12 weeks, and every 8 weeks thereafter, until confirmed objective disease progression. Survival was assessed every 2 months following treatment discontinuation.
(§4) All patients who received at least one dose of study treatment were included in safety analyses.

[3] = test system: patients with ES-SCLC; test: CASPIAN phase 3 trial: treatment-related adverse events (safety population)
Experimental: as §2, §3, §4

[4] = test system: patients with ES-SCLC; test: CASPIAN phase 3 trial: overall survival and progression-free survival, intention-to-treat population; assay type: in vivo, human; conditions: ITT
Experimental: (§1) Eligible patients included adults with histologically or cytologically documented ES-SCLC and were treatment naïve. […] Patients with brain metastases were eligible provided they were asymptomatic or treated and stable off steroids and anticonvulsants for at least 1 month prior to study entry.
Randomization was stratified according to planned platinum agent.
Survival was assessed every 2 months following treatment discontinuation.
The primary endpoint was OS (time from randomization to death from any cause). Secondary endpoints included progression-free survival (PFS; time from randomization to the date of objective disease progression or death from any cause in the absence of progression), objective response rate (ORR), OS at 18 and 24 months, PFS at 6 and 12 months, and safety. PFS and ORR were assessed according to RECIST v1.1.

[5] = test system: patients with ES-SCLC; test: CASPIAN phase 3 trial: tumor response per RECIST v1.1 (objective response, duration of response); assay type: in vivo, human; conditions: for Odds ratio (95% CI) for ORR versus EP: logistic regression adjusted for platinum agent
Experimental: as §1
Randomization was stratified according to planned platinum agent. […]
The primary endpoint was OS (time from randomization to death from any cause). […] PFS and ORR were assessed according to RECIST v1.1.

[6] = target: human CTLA-4 (Homo sapiens, UniProt P16410); conditions: cited from earlier work
[7] = test system: natural killer (NK) ADCC activity; conditions: cited from earlier work
[8] = test system: Fc receptors; conditions: cited from earlier work
[9] = test system: xenograft model; conditions: cited from earlier work
[10] = test system: PD-L1-mediated suppression of human T-cell activation; conditions: in vitro; cited from earlier work
[11] = final analysis, Kaplan-Meier, listed as D+EP

Sequence of human CTLA-4 (P16410 36-223): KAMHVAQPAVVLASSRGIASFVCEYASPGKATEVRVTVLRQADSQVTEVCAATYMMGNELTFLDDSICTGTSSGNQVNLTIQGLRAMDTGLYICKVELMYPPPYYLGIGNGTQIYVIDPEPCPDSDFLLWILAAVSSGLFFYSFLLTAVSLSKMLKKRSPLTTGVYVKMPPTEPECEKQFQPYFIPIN

CC[C@@]1(O)C(=O)OCc2c1cc1n(c2=O)Cc2cc3c(CN(C)C)c(O)ccc3nc2-1 [topotecan]
one-year survival rate [1]: 9%
response rates [1]: 5%

Durvalumab + EP
Any treatment-related event leading to death [2]: 6 (2) n (%)
Alopecia, treatment-related ([3]; Any grade): 75 (28) n (%)
Anaemia, treatment-related ([3]; Any grade): 85 (32) n (%)
Any treatment-related event ([3]; Any grade): 237 (89) n (%)
Any treatment-related event leading to discontinuation ([3]; Any grade): 16 (6) n (%)
Any treatment-related serious event ([3]; Any grade): 35 (13) n (%)
Asthenia, treatment-related ([3]; Any grade): 27 (10) n (%)
Constipation, treatment-related ([3]; Any grade): 23 (9) n (%)
Decreased appetite, treatment-related ([3]; Any grade): 33 (12) n (%)
Diarrhoea, treatment-related ([3]; Any grade): 17 (6) n (%)
Fatigue, treatment-related ([3]; Any grade): 30 (11) n (%)
Febrile neutropenia, treatment-related ([3]; Any grade): 15 (6) n (%)
Hyperthyroidism, treatment-related ([3]; Any grade): 22 (8) n (%)
Hypothyroidism, treatment-related ([3]; Any grade): 23 (9) n (%)
Leucopenia, treatment-related ([3]; Any grade): 36 (14) n (%)
Lipase increased, treatment-related ([3]; Any grade): 10 (4) n (%)
Nausea, treatment-related ([3]; Any grade): 74 (28) n (%)
Neutropenia, treatment-related ([3]; Any grade): 104 (39) n (%)
Neutrophil count decreased, treatment-related ([3]; Any grade): 24 (9) n (%)
Paraesthesia, treatment-related ([3]; Any grade): 14 (5) n (%)
Platelet count decreased, treatment-related ([3]; Any grade): 14 (5) n (%)
Pruritus, treatment-related ([3]; Any grade): 11 (4) n (%)
Rash, treatment-related ([3]; Any grade): 10 (4) n (%)
Thrombocytopenia, treatment-related ([3]; Any grade): 37 (14) n (%)
Vomiting, treatment-related ([3]; Any grade): 32 (12) n (%)
White blood cell count decreased, treatment-related ([3]; Any grade): 12 (5) n (%)
Alopecia, treatment-related ([3]; Grade 3 or 4): 3 (1) n (%)
Anaemia, treatment-related ([3]; Grade 3 or 4): 21 (8) n (%)
Any treatment-related event ([3]; Grade 3 or 4): 121 (46) n (%)
Any treatment-related event leading to discontinuation ([3]; Grade 3 or 4): 3 (1) n (%)
Any treatment-related serious event ([3]; Grade 3 or 4): 25 (9) n (%)
Asthenia, treatment-related ([3]; Grade 3 or 4): 2 (1) n (%)
Constipation, treatment-related ([3]; Grade 3 or 4): 0 n (%)
Decreased appetite, treatment-related ([3]; Grade 3 or 4): 1 (<1) n (%)
Diarrhoea, treatment-related ([3]; Grade 3 or 4): 2 (1) n (%)
Fatigue, treatment-related ([3]; Grade 3 or 4): 2 (1) n (%)
Febrile neutropenia, treatment-related ([3]; Grade 3 or 4): 13 (5) n (%)
Hyperthyroidism, treatment-related ([3]; Grade 3 or 4): 0 n (%)
Hypothyroidism, treatment-related ([3]; Grade 3 or 4): 0 n (%)
Leucopenia, treatment-related ([3]; Grade 3 or 4): 15 (6) n (%)
Lipase increased, treatment-related ([3]; Grade 3 or 4): 8 (3) n (%)
Nausea, treatment-related ([3]; Grade 3 or 4): 0 n (%)
Neutropenia, treatment-related ([3]; Grade 3 or 4): 61 (23) n (%)
Neutrophil count decreased, treatment-related ([3]; Grade 3 or 4): 16 (6) n (%)
Paraesthesia, treatment-related ([3]; Grade 3 or 4): 0 n (%)
Platelet count decreased, treatment-related ([3]; Grade 3 or 4): 4 (2) n (%)
Pruritus, treatment-related ([3]; Grade 3 or 4): 0 n (%)
Rash, treatment-related ([3]; Grade 3 or 4): 0 n (%)
Thrombocytopenia, treatment-related ([3]; Grade 3 or 4): 14 (5) n (%)
Vomiting, treatment-related ([3]; Grade 3 or 4): 0 n (%)
White blood cell count decreased, treatment-related ([3]; Grade 3 or 4): 4 (2) n (%)
patients who had died ([4]; final analysis data cutoff): 78%
patients who had disease progression or died ([4]; final data cutoff): 87%
12-month PFS rate ([4]; final/updated analysis): 17.9%
24-month PFS rate ([4]; final/updated analysis): 11.0%
HR for PFS versus EP ([4]; final/updated analysis): 0.80
Median OS ([4]; final/updated analysis): 12.9 months
Median PFS ([4]; final/updated analysis): 5.1 months
HR for OS versus EP ([4]; final/updated analysis, Cox model stratified by platinum agent): 0.75
24-month OS rate ([4]; final/updated analysis, Kaplan-Meier): 22.2%
Best objective response: Complete response ([5]; final analysis): 7 (3) n (%)
Best objective response: Not evaluable ([5]; final analysis): 3 (1) n (%)
Best objective response: Partial response ([5]; final analysis): 175 (65) n (%)
Best objective response: Progressive disease ([5]; final analysis): 32 (12) n (%)
Best objective response: Stable disease for at least 6 weeks ([5]; final analysis): 20 (7) n (%)
Best objective response: Unconfirmed response ([5]; final analysis): 31 (12) n (%)
Best reduction from baseline in target lesion size, Mean (SD) ([5]; final analysis): −57.0 (24.59) %
Best reduction from baseline in target lesion size, Median (IQR) ([5]; final analysis): −60.4 (−72.9, −44.3) %
Odds ratio vs EP (95% CI), confirmed objective response ([5]; final analysis): 1.53 (1.08-2.18)
Odds ratio vs EP (95% CI), unconfirmed objective response ([5]; final analysis): 1.61 (1.09-2.40)
Remaining in response at 6 months (95% CI) ([5]; final analysis, Kaplan-Meier): 39.3 (32.2-46.3) %
Remaining in response at 12 months (95% CI) ([5]; final analysis, Kaplan-Meier): 23.2 (17.3-29.7) %
Remaining in response at 24 months (95% CI) ([5]; final analysis, Kaplan-Meier): 13.5 (8.7-19.3) %
Remaining in response at 12 months (95% CI) [5, 11]: 23.2%
Remaining in response at 24 months (95% CI) [5, 11]: 13.5%
Median (95% CI) duration of response ([5]; final analysis, confirmed responders, Kaplan-Meier): 5.1 (4.9-5.3) months
Best reduction from baseline in target lesion size, Median (IQR) ([5]; final analysis, listed as D+EP): −60.4%
Odds ratio vs EP (95% CI), confirmed objective response ([5]; final analysis, listed as D+EP): 1.53
confirmed objective response ([5]; final analysis, post hoc): 68%
Best objective response: Not evaluable ([5]; interim analysis): 3 (1.1) n (%)
Best objective response: Progressive disease ([5]; interim analysis): 32 (11.9) n (%)
Best objective response: Stable disease ≥6 weeks ([5]; interim analysis): 20 (7.5) n (%)
Remaining in response at 6 months ([5]; interim analysis): 39.3%
Remaining in response at 12 months ([5]; interim analysis): 22.7%
confirmed ORR ([5]; interim analysis): 67.9%
confirmed complete response ([5]; interim analysis): 2.2%
ORR (confirmed) ([5]; interim analysis, RECIST v1.1): 182 (67.9) n (%)
Best objective response: Complete response ([5]; interim analysis, confirmed): 6 (2.2) n (%)
Best objective response: Partial response ([5]; interim analysis, confirmed): 176 (65.7) n (%)
Median DoR (95% CI) ([5]; interim analysis, confirmed responders): 5.1 (4.9-5.3) months
Median DoR (95% CI) ([5]; interim analysis, confirmed responders, listed as durvalumab plus EP): 5.1 months
Odds ratio (95% CI) for ORR versus EP ([5]; interim analysis): 1.56 (1.095-2.218)
Odds ratio (95% CI) for ORR versus EP ([5]; interim analysis, listed as durvalumab plus EP): 1.56
unconfirmed and confirmed objective response rates, amount higher versus EP ([5]; updated analysis): approximately 10%

Tremelimumab: antibody that selectively binds a CTLA-4 polypeptide, as disclosed in U.S. Pat. No. 8,491,895
cross-reactivity to related human proteins [6]: no cross-reactivity to related human proteins
induction of NK ADCC activity [7]: does not induce natural killer (NK) antibody-dependent cell-mediated cytotoxicity (ADCC) activity
specific binding to Fc receptors [8]: minimal specific binding to Fc receptors

B1: Durvalumab: human IgG1 monoclonal antibody that selectively binds PD-L1 and blocks binding to PD-1 and CD80; VL SEQ ID NO: 1, VH SEQ ID NO: 2 (antibody, V domains shown)
VH: EVQLVESGGGLVQPGGSLRLSCAASGFTFSRYWMSWVRQAPGKGLEWVANIKQDGSEKYYVDSVKGRFTISRDNAKNSLYLQMNSLRAEDTAVYYCAREGGWFGELAFDYWGQGTLVTVSS
VL: EIVLTQSPGTLSLSPGERATLSCRASQRVSSSYLAWYQQKPGQAPRLLIYDASSRATGIPDRFSGSGSGTDFTLTISRLEPEDFAVYYCQQYGSLPWTFGQGTKVEIK
tumor growth inhibition [9]: inhibits tumor growth in a xenograft model via a T-cell dependent mechanism
relief of PD-L1-mediated suppression of human T-cell activation [10]: can relieve PD-L1-mediated suppression of human T-cell activation in vitro
